The sequences below were run on Escherichia coli TOP10 (assay: shrunken log2 fold change of peptide-encoding DNA abundance (4.5 h post-induction vs induction); higher = less antimicrobial activity (less host growth inhibition)). Settings: time post-induction: 4.5 h; library: site-saturation at positions 5, 18, 19, 20.
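Also: peptides expressed intracellularly from a pBAD plasmid library in pooled LB shake-flask culture, induced with 0.3% L-arabinose, DNA abundance read by NGS, three biological replicates, DESeq2 with apeglm shrinkage.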

| Sequence | shrunken log2 fold change |
| --- | --- |
| RRIRDRPPRLPRPRPRPCPRPRP | -0.126 |
| RRIRMRPPRLPRPRPRPWQAPRP | 0.00735 |
| RRIRKRPPRLPRPRPRPYVGPRP | -0.0717 |
| RRIRWRPPRLPRPRPRPETRPRP | 1.32 |
| RRIRKRPPRLPRPRPRPIEAPRP | 0.0321 |
| RRIRLRPPRLPRPRPRPDPEPRP | 0.0928 |
| RRIRMRPPRLPRPRPRPTTIPRP | -0.198 |
| RRIRWRPPRLPRPRPRPVPQPRP | 0.282 |
| RRIRHRPPRLPRPRPRPNRQPRP | -0.0122 |
| RRIRQRPPRLPRPRPRPSQSPRP | -0.00144 |
| RRIRGRPPRLPRPRPRPGHIPRP | 0.299 |
| RRIRSRPPRLPRPRPRPISEPRP | -0.0465 |
| RRIRNRPPRLPRPRPRPTSFPRP | 0.00362 |
| RRIRHRPPRLPRPRPRPRFTPRP | 0.007 |
| RRIRPRPPRLPRPRPRPIIQPRP | -0.402 |
| RRIRYRPPRLPRPRPRPPLHPRP | -0.455 |
| RRIRHRPPRLPRPRPRPVHLPRP | -0.0199 |
| RRIRPRPPRLPRPRPRPGCGPRP | 0.514 |
| RRIRLRPPRLPRPRPRPNQVPRP | -0.294 |
| RRIRRRPPRLPRPRPRPEVAPRP | 0.345 |
| RRIRGRPPRLPRPRPRPCGVPRP | 0.578 |
| RRIRMRPPRLPRPRPRPIRNPRP | 0.00101 |
| RRIRHRPPRLPRPRPRPIGNPRP | -0.199 |
| RRIRQRPPRLPRPRPRPNRHPRP | 0.115 |
| RRIRRRPPRLPRPRPRPGSGPRP | 0.407 |

| Sequence | shrunken log2 fold change |
| --- | --- |
| RRIRSRPPRLPRPRPRPEHRPRP | -0.00155 |
| RRIRTRPPRLPRPRPRPPIIPRP | 0.0882 |
| RRIRQRPPRLPRPRPRPGEIPRP | -0.366 |
| RRIRIRPPRLPRPRPRPEEMPRP | -0.416 |
| RRIRWRPPRLPRPRPRPYVEPRP | -0.446 |
| RRIRHRPPRLPRPRPRPNGLPRP | -0.57 |
| RRIRARPPRLPRPRPRPQCVPRP | 0.0695 |
| RRIRCRPPRLPRPRPRPHDYPRP | -0.482 |
| RRIRNRPPRLPRPRPRPKHKPRP | -0.0428 |
| RRIRFRPPRLPRPRPRPLALPRP | -0.0762 |
| RRIRIRPPRLPRPRPRPCPCPRP | -0.493 |
| RRIRRRPPRLPRPRPRPSFVPRP | -0.0435 |
| RRIRGRPPRLPRPRPRPFIQPRP | -0.382 |
| RRIRWRPPRLPRPRPRPKADPRP | 0.353 |
| RRIRHRPPRLPRPRPRPQHEPRP | -0.191 |
| RRIRMRPPRLPRPRPRPETPPRP | 3.09 |
| RRIRLRPPRLPRPRPRPNEKPRP | -0.00697 |
| RRIRFRPPRLPRPRPRPEHCPRP | -0.0154 |
| RRIRPRPPRLPRPRPRPKFMPRP | -0.171 |
| RRIRFRPPRLPRPRPRPNVNPRP | -0.375 |
| RRIRYRPPRLPRPRPRPHDYPRP | -0.119 |
| RRIRWRPPRLPRPRPRPGMSPRP | 0.893 |
| RRIRWRPPRLPRPRPRPIQNPRP | -0.394 |
| RRIRCRPPRLPRPRPRPHMGPRP | -0.29 |
| RRIRVRPPRLPRPRPRPFTPPRP | -0.412 |

| Sequence | shrunken log2 fold change |
| --- | --- |
| RRIRSRPPRLPRPRPRPIYAPRP | 0.0432 |
| RRIRKRPPRLPRPRPRPQLVPRP | 0.225 |
| RRIRHRPPRLPRPRPRPFMLPRP | -0.726 |
| RRIRMRPPRLPRPRPRPPPYPRP | 1.15 |
| RRIRERPPRLPRPRPRPAYTPRP | -0.284 |
| RRIRGRPPRLPRPRPRPCNSPRP | -0.0377 |
| RRIRDRPPRLPRPRPRPGQAPRP | 0.0989 |
| RRIRIRPPRLPRPRPRPNYWPRP | -0.728 |
| RRIRMRPPRLPRPRPRPQFHPRP | -0.237 |
| RRIRVRPPRLPRPRPRPLEEPRP | 0.0793 |
| RRIRDRPPRLPRPRPRPQCHPRP | -0.0594 |
| RRIRFRPPRLPRPRPRPVWYPRP | -0.308 |
| RRIRMRPPRLPRPRPRPYWDPRP | -0.0427 |
| RRIRLRPPRLPRPRPRPFWLPRP | 0.0573 |
| RRIRYRPPRLPRPRPRPHYSPRP | -0.124 |
| RRIRQRPPRLPRPRPRPHCNPRP | -0.11 |
| RRIRHRPPRLPRPRPRPFYKPRP | -0.774 |
| RRIRLRPPRLPRPRPRPHKMPRP | -0.355 |
| RRIRMRPPRLPRPRPRPGHWPRP | 0.263 |
| RRIRERPPRLPRPRPRPKVHPRP | -0.196 |
| RRIRCRPPRLPRPRPRPGQYPRP | -0.479 |
| RRIRARPPRLPRPRPRPEKAPRP | 0.046 |
| RRIRLRPPRLPRPRPRPQVQPRP | -0.0263 |
| RRIRCRPPRLPRPRPRPCASPRP | 0.0454 |
| RRIRARPPRLPRPRPRPARPPRP | 0.827 |

| Sequence | shrunken log2 fold change |
| --- | --- |
| RRIRNRPPRLPRPRPRPDPWPRP | 0.106 |
| RRIRVRPPRLPRPRPRPLLQPRP | 0.0881 |
| RRIRRRPPRLPRPRPRPDGTPRP | 0.0222 |
| RRIRTRPPRLPRPRPRPQCWPRP | -0.19 |
| RRIRERPPRLPRPRPRPLMCPRP | -0.267 |
| RRIRQRPPRLPRPRPRPNHNPRP | -0.893 |
| RRIRIRPPRLPRPRPRPVHVPRP | -0.168 |
| RRIRDRPPRLPRPRPRPREDPRP | 0.293 |
| RRIRFRPPRLPRPRPRPESLPRP | 0.0896 |
| RRIRFRPPRLPRPRPRPKMMPRP | -0.147 |
| RRIRSRPPRLPRPRPRPSVYPRP | -0.81 |
| RRIRPRPPRLPRPRPRPFQYPRP | -0.179 |
| RRIRRRPPRLPRPRPRPWDAPRP | 0.143 |
| RRIRCRPPRLPRPRPRPVHHPRP | -0.176 |
| RRIRARPPRLPRPRPRPTRLPRP | 0.545 |
| RRIRSRPPRLPRPRPRPSSMPRP | -0.422 |
| RRIRDRPPRLPRPRPRPDVWPRP | 0.511 |
| RRIRTRPPRLPRPRPRPHVPPRP | -0.374 |
| RRIRERPPRLPRPRPRPEATPRP | 0.18 |
| RRIRARPPRLPRPRPRPNARPRP | 0.124 |
| RRIRARPPRLPRPRPRPSHLPRP | -0.41 |
| RRIRWRPPRLPRPRPRPLYSPRP | -0.247 |
| RRIRHRPPRLPRPRPRPTTCPRP | -0.278 |
| RRIRFRPPRLPRPRPRPTTSPRP | 0.0366 |
| RRIRARPPRLPRPRPRPFYTPRP | -0.685 |

| Sequence | shrunken log2 fold change |
| --- | --- |
| RRIRPRPPRLPRPRPRPGSKPRP | -0.0791 |
| RRIRDRPPRLPRPRPRPGGRPRP | 0.569 |
| RRIRGRPPRLPRPRPRPAQRPRP | 0.858 |
| RRIRVRPPRLPRPRPRPTIEPRP | 0.061 |
| RRIRERPPRLPRPRPRPHPGPRP | 0.033 |
| RRIRDRPPRLPRPRPRPTAPPRP | 0.365 |
| RRIRIRPPRLPRPRPRPNDKPRP | -0.647 |
| RRIRLRPPRLPRPRPRPADIPRP | -0.00142 |
| RRIRGRPPRLPRPRPRPFMDPRP | -0.000933 |
| RRIRARPPRLPRPRPRPQLDPRP | 0.654 |
| RRIRNRPPRLPRPRPRPDPTPRP | 0.0817 |
| RRIRKRPPRLPRPRPRPVMNPRP | -0.0155 |
| RRIRPRPPRLPRPRPRPDMFPRP | 2.58 |
| RRIRTRPPRLPRPRPRPWNYPRP | -0.567 |
| RRIRTRPPRLPRPRPRPYPMPRP | -1.43 |
| RRIRWRPPRLPRPRPRPDAMPRP | 0.393 |
| RRIRRRPPRLPRPRPRPFFGPRP | 0.159 |
| RRIRSRPPRLPRPRPRPPAYPRP | -0.0776 |
| RRIRWRPPRLPRPRPRPEHDPRP | -0.0282 |
| RRIRYRPPRLPRPRPRPTYFPRP | -0.485 |
| RRIRWRPPRLPRPRPRPVPLPRP | 0.00691 |
| RRIRMRPPRLPRPRPRPEVDPRP | 0.784 |
| RRIRFRPPRLPRPRPRPHGMPRP | -0.00197 |
| RRIRDRPPRLPRPRPRPRHYPRP | 0.0264 |
| RRIRVRPPRLPRPRPRPQIIPRP | -0.299 |

| Sequence | shrunken log2 fold change |
| --- | --- |
| RRIRERPPRLPRPRPRPKPLPRP | 0.104 |
| RRIRPRPPRLPRPRPRPFKFPRP | -0.469 |
| RRIRWRPPRLPRPRPRPWWNPRP | -0.0562 |
| RRIRNRPPRLPRPRPRPWTVPRP | -0.0833 |
| RRIRNRPPRLPRPRPRPVAYPRP | 0.0201 |
| RRIRARPPRLPRPRPRPALFPRP | 0.61 |
| RRIRTRPPRLPRPRPRPICPPRP | -0.0534 |
| RRIRERPPRLPRPRPRPKSGPRP | -0.136 |
| RRIRIRPPRLPRPRPRPHRDPRP | -0.236 |
| RRIRWRPPRLPRPRPRPMKDPRP | -0.141 |
| RRIRLRPPRLPRPRPRPFNTPRP | 0.724 |
| RRIRYRPPRLPRPRPRPPAMPRP | -0.35 |
| RRIRQRPPRLPRPRPRPTVEPRP | 0.186 |
| RRIRPRPPRLPRPRPRPSNHPRP | -0.497 |
| RRIRFRPPRLPRPRPRPYLIPRP | -0.417 |
| RRIRGRPPRLPRPRPRPAEDPRP | 0.0402 |
| RRIRYRPPRLPRPRPRPQRKPRP | -0.263 |
| RRIRERPPRLPRPRPRPCYEPRP | -0.0528 |
| RRIRERPPRLPRPRPRPCADPRP | 0.0245 |
| RRIRYRPPRLPRPRPRPFWYPRP | -0.234 |
| RRIRVRPPRLPRPRPRPPPCPRP | 0.358 |
| RRIRHRPPRLPRPRPRPYPCPRP | -0.152 |
| RRIRSRPPRLPRPRPRPGQEPRP | -0.0151 |
| RRIRIRPPRLPRPRPRPYYWPRP | -0.449 |
| RRIRLRPPRLPRPRPRPLEKPRP | -0.0425 |
